The source of these data is US11312769B2, “Anti-TMEFF1 antibodies and antibody drug conjugates” (Bluefin BioMedicine, Inc., priority 2017, dated 2022).

Assay [1] relates to hTMEFF1-ECD recombinant deletion mutants. Kind of assay: Binding domain determination with hTMEFF1-ECD deletion mutants (Octet). Also noted: species or system human; key: FS1—follistatin domain 1; FS2—follistatin domain 2. To be noted: full length TMEFF1 ECD vs ΔFS1, ΔFS2, ΔFS1&FS2. The source says:
TMEFF1 recombinant proteins expressing 3 different deletion mutants, AFS1 (AFollistatin Domain 1), AFS2 (AFollistatin Domain 2) or AFS1&FS2 were used to identify binding domains among different antibodes using an Octet Red instrument with Anti-Penta-His (HIS 1K) biosensors. Expression of the 3 deletion mutants was confirmed by WB analysis. 100 ngs of purified TMEFF1 ECD was run along with unpurified supernatant of transfected CHO cells with the different deletion mutants. HIS 1K biosensors were loaded by submerging the biosensors into wells containing 10 ug/ml of full length TMEFF1 or one of 3 different deletion mutants (AFS1, AFS2 or AFS1&FS2) for 60 seconds. Following the loading step, the biosensors were then dipped for 30 seconds in PBS before immersion for 30 seconds in 200 ul of unpurified recombinant antibodies for 30 seconds. The biosensors were then dipped briefly (30 seconds) in PBS to observe any dissociation. Samples were determined to show binding or no binding by comparing to a control well that contained no recombinant antibody. Differential binding to the deletion mutants allowed for determination of binding sites on TMEFF1 recombinant protein. For cases where the antibody bound all 3 recombinant proteins, the binding is outside of the deleted domains. For the case where binding is observed only on full length TMEFF1 and AFS2, the antibody is binding in the ΔFS1 domain.
26 of the identified antibodies were checked for epitope domain binding by Octet™ using the hTMEFF1-ECD recombinant deletion mutants (see Table 7, below).

Another assay addresses T1, recombinant TMEFF1 (Homo sapiens, UniProt Q8IYR6).
T1 construct: generated to secrete the ECD from CHO cells to assist with biophysical evaluations; His tag (C); made in house; host or cells: CHO (ExpiCHO)
T1 sequence (Q8IYR6 40-330 limits assumed): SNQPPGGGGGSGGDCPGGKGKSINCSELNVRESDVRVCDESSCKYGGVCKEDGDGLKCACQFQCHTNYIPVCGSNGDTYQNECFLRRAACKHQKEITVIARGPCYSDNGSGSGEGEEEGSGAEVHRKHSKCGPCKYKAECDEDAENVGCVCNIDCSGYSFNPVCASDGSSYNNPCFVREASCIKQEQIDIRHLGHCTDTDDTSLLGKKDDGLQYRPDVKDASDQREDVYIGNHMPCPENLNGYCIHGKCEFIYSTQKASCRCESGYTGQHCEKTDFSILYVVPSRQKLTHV
Description: Binding competition binning (Octet). The settings on record: seven antibodies, 3 bins. On the procedure: Binding competition among different antibodies was determined using a real-time, interferometry assay on an Octet Red™ instrument with Protein A-conjugated biosensors. To assess whether two antibodies competed for binding to a recombinant TMEFF1 protein, the assay was performed as follows. Protein A biosensors were first submerged into wells containing 10 ug/mL of individual monoclonal antibodies for 5 minutes. Following the capture step, the biosensors were dipped briefly (15 seconds) into buffer and then any unoccupied sites on the biosensor were saturated by submerging them for 5 minutes into wells containing 100 ug/mL of an irrelevant monoclonal antibody. The Octet biosensors were then dipped briefly (15 seconds) in buffer before immersion for 1 minute into wells containing recombinant TMEFF1. The biosensors were dipped briefly (15 seconds) in buffer before immersion for 1 minute into wells containing a second recombinant antibody.
For the control case where the second antibody was the same as the first, there was no increase in signal, because there was no additional binding to the recombinant target.
For the control case where buffer was used instead of the first antibody, no recombinant target bound the non-quenching antibody on the biosensor and no second antibody bound the biosensor.
Competition binning using Octet™ was done with seven antibodies and 3 separate bins were identified.
In general terms: Biolayer interferometry detects binding as a change in optical thickness at a sensor tip.

Residue numbers refer to the chain shown, from its start. Names may count otherwise.

B1: 29C4: human anti-TMEFF1 IgG1 antibody; VH SEQ ID NO: 118, VL SEQ ID NO: 122 (antibody, V domains shown)
VH: QVQLVESGGGVVQPGRSLRLSCAASGFTFSNYGMHWVRQAPGKGLEWVAVIWYDGGPKFYADSVKGRFTISRDNSKNTLYLQMNSLRAEDTAVYYCARSYCGGDCYPFDYWGQGDLVTVSS
VL: DIQMTQSPSSLSASVGDRVTITCRASQGISNYLAWYQQKPGKVPKLLIYAASTLQSGVPSRFSGSGSGTDFTLTISSLQPEDVATYYCQKYYSAPWTFGQGTKVEIK
Regarding B1, in assay [1], the “Binding region (epitope domain binding)” value is listed as “FS1”.

B2: 35B1: human anti-TMEFF1 IgG1 antibody; VH SEQ ID NO: 66, VL SEQ ID NO: 70 (antibody, V domains shown)
VH: QVQLVESGGGVVQPGRSLRLSCAASGFTFTTYGMHWVRQAPGKGLEWVAVVWFEGNSKFYIDSVKGRFIISRDNSKNTLFLQMNSLRAEDTAVYYCARANCGADCYPFDYWGQGTLVTVSS
VL: B1 VL with T72S, Q79R, Y92N
As to B2, the “Binding region (epitope domain binding)” value in assay [1] is on record as “FS1”.

B3: 37G7: human anti-TMEFF1 IgG1 antibody; VH SEQ ID NO: 85, VL SEQ ID NO: 88 (antibody, V domains shown)
VH: B2 VH with T31S, F53Y, N56S, I61V, F80Y, N100Y, A103G
VL: B1 VL with Y92N
Turning to B3, the “Binding region (epitope domain binding)” value in assay [1] was “FS1”.

B4: M17: human anti-TMEFF1 IgG1 antibody; VH SEQ ID NO: 79, VL SEQ ID NO: 82 (antibody, V domains shown)
VH: QVQLVESGGGVVQPGRSLRLSCAASGFTFRSYGMHWVRQAPGKGLEWVALIWYDGGDQYYADSVKGRFTISRDSSKSTLYLQMNSLRAEDTAVYYCARAQCGDDCYPFDYWGQGTLVTVSS
VL: B1 VL with S30Y, Y92N, A94D, V104L
On to B4, for which the “Binding region (epitope domain binding)” value in assay [1] is “FS1”.

B5: M35: human anti-TMEFF1 IgG1 antibody; VH SEQ ID NO: 134, VL SEQ ID NO: 138 (antibody, V domains shown)
VH: QVQLQESGPGLVKPSGTLSLTCAVSGGSISSSNWWSWVRQPPGKGLEWIGEIYHSGSTNYNPSLKSRVTISVDKSKNQFSLKLSSVTAADTAVYYCATMVRGRYYYYGMDVWGQGTTVTVSS
VL: DIVMTQSPLSLPVTPGEPASISCRSSQSLLHSDGYNFLDWYLQKPGQSPQFLIYLGSNRASGVPDRFSGVGSGTDFTLQISRVEAEDFGVYYCMQALQAPWTFGQGTKLEIK
Turning to B5, the “Binding region (epitope domain binding)” value in assay [1] was “FS1”.

B6: 3H9: human anti-TMEFF1 IgG1 antibody; VH SEQ ID NO: 114, VL SEQ ID NO: 117 (antibody, V domains shown)
VH: EVQLVESGGGLVKPGGSLRLSCAASGFVFSYAWMNWVRQAPGKGLEWVGRIKSKTEGGTTDNAAPVKGRFTISREDSKNTLYLQLNSLKIEDTAVYYCTTGRIAAAGFDYWGQGTLVTVSS
VL: DAVVTQESALTTSPGETVTLTCRSSTGTVTTSNYANWVQEKPDHLFTGLIAGTNNRAPGVPARFSGSLIGDKAALTITGAQTEDEAIYFCALWYSNHWVFGGGTKLTVLG
In the case of B6, the “Binding region (epitope domain binding)” value in assay [1] is on record as “other”.

B7: 11F9: human anti-TMEFF1 IgG1 antibody; VH SEQ ID NO: 71, VL SEQ ID NO: 75 (antibody, V domains shown)
VH: B6 VH with V28T, N35S, E56D, N62Y, E75D, G112A
VL: B6 VL with A74V
Take B7: the “Binding region (epitope domain binding)” value in assay [1] is reported as “other”.

B8: M1F1: human anti-TMEFF1 IgG1 antibody; VH SEQ ID NO: 9, VL SEQ ID NO: 13 (antibody, V domains shown)
VH: QVQLQESGPGLVKPSETLSLTCAVSGYSISSGYFWGWIRQPPGKKLEWIGSIYHSGSTYYNPSLKSRVTMSVDTSKNQFSLKLSSVTAADTAVYYCAREGDCSGGICYWYFDLWGRGTLVTVSS
VL: EIVMTQSPATLSVSPGERATLSCRASQSVSSNLAWYQQKPGQAPRLLIYGASTRATGIPARFSGSGSGTEVTLTISSLQSEDFAVYYCQQYNKWPLTFGGGTKVEIK
With B8, the “Competition binning (epitope bin)” value with recombinant TMEFF1 is “bind a region different from FS1 or FS2 and compete with each other”. Moreover, the “Binding region (epitope domain binding)” value in assay [1] is “Other”.

B9: M1H1: human anti-TMEFF1 IgG1 antibody; VH SEQ ID NO: 9, VL SEQ ID NO: 78 (antibody, V domains shown)
VH: B8 VH
VL: B1 VL with V83F, T85V, K90Q, Y92N, S93K, A94W, W96L, Q100G, V104L
As to B9, the “Binding region (epitope domain binding)” value in assay [1] is reported as “other”.

B10: M33F: human anti-TMEFF1 IgG1 antibody; VH SEQ ID NO: 9, VL SEQ ID NO: 141 (antibody, V domains shown)
VH: B8 VH
VL: DIQMTQSPSSLSASVGDRVTITCRASQGISNYLAWYQQKPGKVPKLLIYAASTLQSGVPSRFSGSGSGTEVTLTISSLQSEDFAVYYCQQYNKWPLTFGGGTKLEIK
In the case of B10, the “Binding region (epitope domain binding)” value in assay [1] was “other”.

B11: 10C10: human anti-TMEFF1 IgG1 antibody; VH SEQ ID NO: 96, VL SEQ ID NO: 93 (antibody, V domains shown)
VH: QVQLVESGGGVVQPGRSLRLSCATSGFTFSIYGMHWVRQAPGKGLEWVAIIWYDGNKKYYADSVKGRFTISRDNSKNTLYLQMNSLRAEDTAVYYCARDPYTSSLDYWGQGTLVTVSS
VL: B10 VL with M4L, S10F, N31S, V43A, V71F, S80P, V85T, Y91L, K93S, W94Y
Turning to B11, the “Binding region (epitope domain binding)” value in assay [1] is on record as “FS1”.

B12: 19D9: human anti-TMEFF1 IgG1 antibody; VH SEQ ID NO: 99, VL SEQ ID NO: 101 (antibody, V domains shown)
VH: B11 VH with T24A, I50N, N56S, A92S
VL: DIQLTQSPSFLSASVGDRVTITCRASQGISSYLAWYQQKPGKAPKLLIYTASTLQSGVPSRFSGSGSGTEFTLTISSLQPEDFATYYCQQLNSYPLTFGGGTKLEIK
Turning to B12, in assay [1], the “Binding region (epitope domain binding)” value is listed as “FS1”.

B13: 18C2: human anti-TMEFF1 IgG1 antibody; VH SEQ ID NO: 89, VL SEQ ID NO: 93 (antibody, V domains shown)
VH: B11 VH with T24A, K43M, W52R, N56S, K57N, Q82R, Y101F
VL: B12 VL with T50A
With B13, the “Binding region (epitope domain binding)” value in assay [1] was “FS1”.
